Laboratory results: patent publication US20220048967A1 (published 2022)
Numbered stars: 1 amine (or outer) side, 2 acyl side, 3 side chain; on linkers, the order of the positions; unused ones are H or OH. Square brackets hold non-standard residues; d marks the D form. Side chains are listed from the residue outwards. Ends that are not written are not given here. * marks the point of attachment. C20 diacid = O=C(O)CCCCCCCCCCCCCCCCCCC(=O)*; αMePhe(2-F) = C[C@](N)(Cc1ccccc1F)C(=O)O; γGlu = O=C(O)[C@H](CCC(=O)[*:2])N[*:1]; αMeF = C[C@](N)(Cc1ccccc1)C(=O)O; AEEA = NCCOCCOCC(=O)O; Aib = CC(C)(N)C(=O)O

T1: human gastric inhibitory peptide receptor (GIPR) (human, UniProt P48546 22-466)
T1 sequence (looked up): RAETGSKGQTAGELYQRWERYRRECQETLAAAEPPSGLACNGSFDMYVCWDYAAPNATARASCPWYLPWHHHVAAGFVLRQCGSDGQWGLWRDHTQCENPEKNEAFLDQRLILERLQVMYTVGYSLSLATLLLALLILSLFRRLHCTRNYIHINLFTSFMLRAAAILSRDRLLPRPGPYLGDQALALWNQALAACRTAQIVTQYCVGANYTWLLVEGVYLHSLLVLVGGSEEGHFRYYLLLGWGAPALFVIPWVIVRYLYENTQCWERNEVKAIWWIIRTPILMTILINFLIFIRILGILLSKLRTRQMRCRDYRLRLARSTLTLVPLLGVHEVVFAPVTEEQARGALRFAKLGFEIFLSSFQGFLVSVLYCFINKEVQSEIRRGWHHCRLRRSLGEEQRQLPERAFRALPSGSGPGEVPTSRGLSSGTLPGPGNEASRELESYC

B1: Example 136 (peptide)
peptide: Y[Aib]EGTFTSDASILLDKK([AEEA-AEEA-γGlu-C20 diacid])AQ[Aib]AFIEYLIEAGPSSGAPPPS-NH2
modifications: N-terminus assumed
SMILES: CC[C@H](C)[C@H](NC(=O)[C@H](CC(C)C)NC(=O)[C@H](Cc1ccc(O)cc1)NC(=O)[C@H](CCC(=O)O)NC(=O)[C@@H](NC(=O)[C@H](Cc1ccccc1)NC(=O)[C@H](C)NC(=O)C(C)(C)NC(=O)[C@H](CCC(N)=O)NC(=O)[C@H](C)NC(=O)[C@H](CCCCNC(=O)COCCOCCNC(=O)COCCOCCNC(=O)CC[C@H](NC(=O)CCCCCCCCCCCCCCCCCCC(=O)O)C(=O)O)NC(=O)[C@H](CCCCN)NC(=O)[C@H](CC(=O)O)NC(=O)[C@H](CC(C)C)NC(=O)[C@H](CC(C)C)NC(=O)[C@@H](NC(=O)[C@H](CO)NC(=O)[C@H](C)NC(=O)[C@H](CC(=O)O)NC(=O)[C@H](CO)NC(=O)[C@@H](NC(=O)[C@H](Cc1ccccc1)NC(=O)[C@@H](NC(=O)CNC(=O)[C@H](CCC(=O)O)NC(=O)C(C)(C)NC(=O)[C@@H](N)Cc1ccc(O)cc1)[C@@H](C)O)[C@@H](C)O)[C@@H](C)CC)[C@@H](C)CC)C(=O)N[C@@H](CCC(=O)O)C(=O)N[C@@H](C)C(=O)NCC(=O)N1CCC[C@H]1C(=O)N[C@@H](CO)C(=O)N[C@@H](CO)C(=O)NCC(=O)N[C@@H](C)C(=O)N1CCC[C@H]1C(=O)N1CCC[C@H]1C(=O)N1CCC[C@H]1C(=O)N[C@@H](CO)C(N)=O
B2: Example 151 (peptide)
peptide: Y[Aib]EGT[αMePhe(2-F)]TSDYSIXLDEKAQ[Aib]EFIPYLIEGGPSSGAPPPS-NH2
modifications: not fully specified (residues 13, 17); printed as Y-Aib-EGT-αMeF(2F)-TSDYSI-αMeF-LDEK((2-[2-(2-Amino-ethoxy)-ethoxy]-acetyl)2-(γ-Glu)-CO-(CH2)18-CO2H)AQ-Aib-EFIPYLIEGGPSSGAPPPS-NH2
B3: Example 141 (peptide)
peptide: Y[Aib]EGT[αMeF]TSDYSIXLDKKAQ[Aib]IFIEYLIEGGPSSGAPPPS-NH2
modifications: not fully specified (residues 13, 17); printed as Y-Aib-EGT-αMeF-TSDYSI-αMeF-LDKK((2-[2-(2-Amino-ethoxy)-ethoxy]-acetyl)2-(γ-Glu)-CO-(CH2)18-CO2H)AQ-Aib-IFIEYLIEGGPSSGAPPPS-NH2
B4: Example 145 (peptide)
peptide: Y[Aib]EGT[αMeF]TSDASIXLDKKAQ[Aib]AFIEYLIEGGPSSGAPPPS-NH2
modifications: not fully specified (residues 13, 17); printed as Y-Aib-EGT-αMeF-TSDASI-αMeF-LDKK((2-[2-(2-Amino-ethoxy)-ethoxy]-acetyl)2-(γ-Glu)-CO-(CH2)18-CO2H)AQ-Aib-AFIEYLIEGGPSSGAPPPS-NH2
B5: Example 140 (peptide)
peptide: Y[Aib]EGT[αMeF]TSDYSIXLDKKAQ[Aib]DFIEYLIEGGPSSGAPPPS-NH2
modifications: not fully specified (residues 13, 17); printed as Y-Aib-EGT-αMeF-TSDYSI-αMeF-LDKK((2-[2-(2-Amino-ethoxy)-ethoxy]-acetyl)2-(γ-Glu)-CO-(CH2)18-CO2H)AQ-Aib-DFIEYLIEGGPSSGAPPPS-NH2
B6: Example 149 (peptide)
peptide: Y[Aib]EGT[αMePhe(2-F)]TSDYSIXLDEKAQ[Aib]EFIVYLIEGGPSSGAPPPS-NH2
modifications: not fully specified (residues 13, 17); printed as Y-Aib-EGT-αMeF(2F)-TSDYSI-αMeF-LDEK((2-[2-(2-Amino-ethoxy)-ethoxy]-acetyl)2-(γ-Glu)-CO-(CH2)18-CO2H)AQ-Aib-EFIVYLIEGGPSSGAPPPS-NH2
B7: Example 143 (peptide)
peptide: Y[Aib]EGT[αMeF]TSDYSIXLDKKAQ[Aib][Aib]FIEYLIEGGPSSGAPPPS-NH2
modifications: not fully specified (residues 13, 17); printed as Y-Aib-EGT-αMeF-TSDYSI-αMeF-LDKK((2-[2-(2-Amino-ethoxy)-ethoxy]-acetyl)2-(γ-Glu)-CO-(CH2)18-CO2H)AQ-Aib-Aib-FIEYLIEGGPSSGAPPPS-NH2
B8: Example 142 (peptide)
peptide: Y[Aib]EGT[αMeF]TSDYSIXLDKKAQ[Aib]HFIEYLIEGGPSSGAPPPS-NH2
modifications: not fully specified (residues 13, 17); printed as Y-Aib-EGT-αMeF-TSDYSI-αMeF-LDKK((2-[2-(2-Amino-ethoxy)-ethoxy]-acetyl)2-(γ-Glu)-CO-(CH2)18-CO2H)AQ-Aib-HFIEYLIEGGPSSGAPPPS-NH2
B9: Example 150 (peptide)
peptide: Y[Aib]EGT[αMePhe(2-F)]TSDYSIXLDEKAQ[Aib]EFISYLIEGGPSSGAPPPS-NH2
modifications: not fully specified (residues 13, 17); printed as Y-Aib-EGT-αMeF(2F)-TSDYSI-αMeF-LDEK((2-[2-(2-Amino-ethoxy)-ethoxy]-acetyl)2-(γ-Glu)-CO-(CH2)18-CO2H)AQ-Aib-EFISYLIEGGPSSGAPPPS-NH2
B10: Example 148 (peptide)
peptide: Y[Aib]EGT[αMePhe(2-F)]TSDYSIXLDEKAQ[Aib]EFIAYLIEGGPSSGAPPPS-NH2
modifications: not fully specified (residues 13, 17); printed as Y-Aib-EGT-αMeF(2F)-TSDYSI-αMeF-LDEK((2-[2-(2-Amino-ethoxy)-ethoxy]-acetyl)2-(γ-Glu)-CO-(CH2)18-CO2H)AQ-Aib-EFIAYLIEGGPSSGAPPPS-NH2
B11: Example 139 (peptide)
peptide: Y[Aib]EGT[αMeF]TSDYSIXLDKK([AEEA-AEEA-γGlu-C20 diacid])AQ[Aib]TFIEYLIEGGPSSGAPPPS-NH2
modifications: not fully specified (residue 13); printed as Y-Aib-EGT-αMeF-TSDYSI-αMeF-LDKK((2-[2-(2-Amino-ethoxy)-ethoxy]-acetyl)2-(γ-Glu)-CO-(CH2)18-CO2H)AQ-Aib-TFIEYLIEGGPSSGAPPPS-NH2
B12: Example 146 (peptide)
peptide: Y[Aib]EGT[αMePhe(2-F)]TSDYSIXLDEKAQ[Aib]EFIQYLIEGGPSSGAPPPS-NH2
modifications: not fully specified (residues 13, 17); printed as Y-Aib-EGT-αMeF(2F)-TSDYSI-αMeF-LDEK((2-[2-(2-Amino-ethoxy)-ethoxy]-acetyl)2-(γ-Glu)-CO-(CH2)18-CO2H)AQ-Aib-EFIQYLIEGGPSSGAPPPS-NH2
B13: Example 144 (peptide)
peptide: Y[Aib]EGT[αMeF]TSDYSIXLDKKAQH[Aib]FIEYLIEGGPSSGAPPPS-NH2
modifications: not fully specified (residues 13, 17); printed as Y-Aib-EGT-αMeF-TSDYSI-αMeF-LDKK((2-[2-(2-Amino-ethoxy)-ethoxy]-acetyl)2-(γ-Glu)-CO-(CH2)18-CO2H)AQH-Aib-FIEYLIEGGPSSGAPPPS-NH2

Key:
[1] = target: T1, human gastric inhibitory peptide …; assay: cell-based or functional assay
[2] = target: human GLP-1 receptor (GLP-1R) (human, UniProt P43220 24-463); assay: cell-based or functional assay

Binder	hGIPR cAMP EC50 ratio [1]	hGIPR cAMP Rel EC50 [1] [nM]	hGLP1R cAMP EC50 ratio [2]	hGLP1R cAMP Rel EC50 [2] [nM]
B1	0.0544	3.39	1.1	0.06
B2	0.262	0.41	0.0278	1.6
B3	0.538	0.2	0.414	0.0975
B4	2.46	0.0514	1.22	0.0427
B5	3.76	0.0349	1.16	0.0424
B6	1.82	0.0711	0.484	0.0916
B7	2.78	0.0515	0.714	0.0745
B8	2.84	0.0489	1.22	0.0426
B9	2.64	0.0511	0.79	0.0575
B10	2.7	0.043	0.859	0.0626
B11	3.61	0.037	1.13	0.0417
B12	1.98	0.0583	0.951	0.0604
B13	3.6	0.0375	0.851	0.0608
